Values quoted from earlier work, collected in article PMC12384831.
“And” between values parts separate entries of the source, which are not always exact repeats. Identical values can stand only once.

Molecular target: VISTA (Homo sapiens) (UniProt Q9H7M9)
Sequence of UniProt Q9H7M9 (Q9H7M9 33-194): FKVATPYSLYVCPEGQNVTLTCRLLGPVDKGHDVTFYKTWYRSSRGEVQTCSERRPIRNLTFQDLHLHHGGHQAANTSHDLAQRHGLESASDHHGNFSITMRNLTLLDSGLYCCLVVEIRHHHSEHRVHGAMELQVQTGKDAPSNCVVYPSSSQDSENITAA

Substance: IGSF11 (from UniProt Q5DX21)
- Kd: 20 nM and 80 nM
